This assay concerns the target Fluorescently labeled ATS (intracellular segment) of PfEMP1 variant PF08_0141, full-length segment (P. falciparum, 5-FAM label). As to the kind of experiment: fluorescence polarisation. For orientation: Fluorescence polarisation rises when a labelled molecule tumbles more slowly, as on binding a larger partner.

B1: PFI1780w PHIST domain (as used in fluorescence polarization) (domain or fragment)
chain: SLSDEINKCDMKKYTAEEINEMINSSNEFINRNDMNIIFSYVHESEREKFKKVEENIFKFIQSIVETYKIPDEYKMRKFKFAHFEMQGYALKQEKFLLEYAFLSLNGKLCERKKFKEVLEYVKREWIEFRKSMFDVWKEKLASEFREHGEMLNQKRKLKQHEL
Regarding B1, the “fold lower affinity than PFE1605w” value was around 30 fold.

For the origin of these results see PMC4202109 (The FASEB Journal, 2014).
